Measured values reported in the nanobody polyreactivity screen of Harvey et al. (2022).

Experiment: yeast display, Sf9 membrane polyspecificity reagent, FACS + sequencing; frameworks hold sequencing errors
How it was run: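 Nanobodies from a synthetic yeast display library (Saccharomyces cerevisiae BJ5465), induced 36–48 hours with galactose, were stained 1 hour at 4 °C with 10% biotinylated, detergent-solubilized Sf9 membrane reagent, enriched on streptavidin microbeads, then FACS-sorted. Anti-HA (expression) and streptavidin (reagent binding) fluorescence set low and high (top ~1%) gates. Polyreactivity labels come from the gate of origin. Genes were colony-PCR amplified, MiSeq 2 × 250 sequenced and filtered by CDR length.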

Row | Sequence | polyreactivity (PSR sort gate)
1 | QVQLVESGGGLVQAGGSLRLSCAASGFIFEHYAMGWYRQAPVKERELVARISWRGGSTYYADSVKGRFTISRDNAKNTVYLQMNRLKPEDTAVYYCNALEVVYFGYYPSDYWGQGTQVTVSS | low polyreactivity
2 | QVQLVESGGGLVQAGGSLRLSCAASGFIFETYAMGWYRQAPGKERELVAAISRGASTYYADSVKGRFTISRDNAKNTVSLQMNSLKQEDTGVYYCAAKRLSWHRYGYWGQGTQVTVSS | low polyreactivity
3 | QVQLVESGGGLVQAGGSLRLSCAASGFIFEWYTMGWYRQAPGKERELVARISSDGSTTYADSVKGRFTISRDNAKNTVYLQMNSLKPEDTAVYYCAADVTYPGLKYIFDYWGQGTQVTVSS | low polyreactivity
4 | QVQLVESGGGLVQAGGSLRLSCAASGFIFEYNTMGWYIQAPGKERELVAAISFIGGRTYYADSVKRRFTLSRDNAKNTVYLQMNSLKPVDTAVNYCNKRYGGYYSGARRVLYYYWGQGTQVTVSS | high polyreactivity
5 | QVQLVESGGGLVQAGGSLRLSCAASGFIFFINDMGWYRQAPGKERELVAAISWSGGSTYYADSVKGRFTISRDNAKNTVYLQMNSLKPEDTAVYYCNTDVPTAQYDYWGQGTQVTVSS | low polyreactivity
6 | QVQLVESGGGLVQAGGSLRLSCAASGFIFFKNAMGWYRQAPGKERELVDVISTSGGRTYYADSVKGRFTISRDYAKNTVYLQMNSLKPEDTAVYYCAAGDQYKTRRNGYGYWGQGTQVTVSS | high polyreactivity
7 | QVQLVESGGGLVQAGGSLRLSCAASGFIFFRYAMGWYRQAPGKERELVAAISTRTGITYYSDSVKGRFTISRDNAKNNVYLQMNRLKPEDTAVYDRNVLRSHSLYPFWKYDYWGQGTQVTVSS | high polyreactivity
8 | QVQLVESGGGLVQAGGSLRLSCAASGFIFFSNAMGWYRQAPGKEMELVAAISRIGVSTYYADSLKGRFTISRDNAKNTVYLQMKSLKPEYTAVYYCNKSNPDYDGLAIHAFDYWGQGTQVTVSS | low polyreactivity
9 | QVQLVESGGGLVQAGGSLRLSCAASGFIFFTYAMGWYRQAPGKERELVAAISSRGGSTYYADSVQGRFTISRDNAKKTVYLQMNSLKPEDTAVYYCAAQAYGGYPYGYWGQGTQVTVSS | high polyreactivity
10 | QVQLVESGGGLVQAGGSLRLSCAASGFIFFYYAMGWYRQAPGKERELVAAISASGGSTYYADSVKGRFTMSRDNAKNTVYLQMNSLKPEDTAVYYCATDPISRARLYGQRDYWGQGTQVTVSS | high polyreactivity
11 | QVQLVESGGGLVQAGGSLRLSCAASGFIFFYYAMGWYRQAPGKERELVASINWSGGRTYYADSVKGRFTISRDNAKNTVYLQMNSLKPEDTAVYYCAADRRFSTYDYWGQGTQVTVSS | high polyreactivity
12 | QVQLVESGGGLVQAGGSLRLSCAASGFIFFYYAMGWYRQAPGKERELVAVIDRSGGTTYYADSVKGRFTISRDNAKNTVYFQMNILKPEDTAVYYCNADDFTYPSGWGFIYDYWGQGTQVTVSS | low polyreactivity
13 | QVQLVESGGGLVQAGGSLRLSCAASGFIFGDNAMGWYRQAPGKERELVAAINSGSRTSYADSVKGRFTISRDNAKNTVFLQMNSLKPEDTAVYYCAAESVSSGDNASRYDFWGQGTQVTVSS | low polyreactivity
14 | QVQLVESGGGLVQAGGSLRLSCAASGFIFGFYAMGWYRQAPGKERELVADITSSGGSTYYADSVKGRFTISRDNAKYSVYLQMNSLKPEDTAVYYCAADGWWHNFYPGTGLDYWGQGTQVTVSS | low polyreactivity
15 | QVQLVESGGGLVQAGGSLRLSCAASGFIFGGNAMGWYRQAPGKERELVAAISSGGRTYYADSVKGRFTISRDNAKNTVYLQMNSLKPEDTAVYYCNAYSYHRGRDYWGQGTQVTVSS | low polyreactivity
16 | QVQLVESGGGLVQAGGSLRLSCAASGFIFGGNAMGWYRQAPGKERELVAAITARSGSTYYADSVKGRFTISRDNAKNTVYLQMNSLKPEDTAVYYCATPVYRSTYEYDYWGQGTQVTVSS | low polyreactivity
17 | QVQLVESGGGLVQAGGSLRLSCAASGFIFGGYAMGWSRQAPGKERELVAAISRSGGSTYYADSVKGRFTISRDNAKNTVYLQMNSLKPEDTAVYYCNAVPRRQGFNYWGQGTQVTVSS | high polyreactivity
18 | QVQLVESGGGLVQAGGSLRLSCAASGFIFGGYAMGWYIQGHGKERELVAAISSSGGSTYYADSVKGRFTISRDNAKNSVYLQMNSLKPEDTAVYYCAKVGWSRRYYYWGQGTKVTVSS | high polyreactivity
19 | QVQLVESGGGLVQAGGSLRLSCAASGFIFGGYAMGWYRQAPGKERELVAAISRSGGSTYYADSVKGRFTISRDNAKNTVYLQMNSLKPEDTAVYYCAAKFWPEDHRMDYWGQGTQVTVSS | low polyreactivity
20 | QVQLVESGGGLVQAGGSLRLSCAASGFIFGGYAMGWYRQAPGKERELVAAISRSGGSTYYADSVKGRFTISRDNGKNTLNLKMNSLKREDTAVYYCNAVPRRQGFNYWGQGTQVTVSS | high polyreactivity
21 | QVQLVESGGGLVQAGGSLRLSCAASGFIFGKYAMGWYRQAHGKERELVAAITSDGRTYYADSVKGRFTISRDNAKNTVYLQMNSLKPEDTAVYYCAATRYGHRYYYRPYEYWGQGTQVTVSS | high polyreactivity
22 | QVQLVESGGGLVQAGGSLRLSCAASGFIFGKYAMGWYRQAPGKEREFVAAITGNGGSTYYADSVKGRFTISRDNAKNTVYLQMNSLKPEDTAVYYCNADRGYRRRSGMDYWGQGTQVTVSS | low polyreactivity

Row | Sequence | polyreactivity (PSR sort gate)
23 | QVQLVESGGGLVQAGGSLRLSCAASGFIFGKYAMGWYRQAPGKEREVVAAITSGGSTYYADSVKGRFTISRDNAKNTVYLQMNSLKPEDTAVYYCAVPFTFWWSSYRYDYWGQGTQVTVSS | high polyreactivity
24 | QVQLVESGGGLVQAGGSLRLSCAASGFIFGLYAMGWYRQAPGKERELVATISWDGGSTYYADSVKGRFTISRDNAKNTVYLQMNSLKPEDTAVYYCNARYIGGYGYWGQGTQVTVSS | low polyreactivity
25 | QVQLVESGGGLVQAGGSLRLSCAASGFIFGLYAMGWYRQAPGKERELVATISWDGGSTYYADSVKGRFTISRDYAKNTVYLQMNSLKPEDTAVYYCAATYLYRSPYVPMDYWGQGTQVTVSS | low polyreactivity
26 | QVQLVESGGGLVQAGGSLRLSCAASGFIFGNNDMGWYRQAPGKERELVAGITWSGSSTYYADSVKGRFTISRDNAKNTVYLQMNSLKPEDTAVYYCNRVFTWRYGYRYEYWGQGTQVTVSS | high polyreactivity
27 | QVQLVESGGGLVQAGGSLRLSCAASGFIFGNYAMGWYRQAPGKERELVATITRRGGRTYYADSVKGRFTISRDNAKNTVYLQMNSLKPEDSAVYYCNARPSRWAREGYWGQGTQVTVSS | high polyreactivity
28 | QVQLVESGGGLVQAGGSLRLSCAASGFIFGNYDMEWYRPAPGKERELVAAITNGGGNTYYADSVKGRITISRDNAKNTVYLQMNSLKPEDTAVSYCHPLRYYYWGQGTQVTVSS | high polyreactivity
29 | QVQLVESGGGLVQAGGSLRLSCAASGFIFGNYVMGWYRPAPGKERELVAAISESGSRTYYADSVKGRFTISRDNAKNTVYLQMNSLKPEDTAVYYCAAALFSYYGEYDYWGQGTQVTVSS | low polyreactivity
30 | QVQLVESGGGLVQAGGSLRLSCAASGFIFGQYAMGWYRQAPGKERELVAAISRSGGSTYYADSVKGRFTISRDNAKNTVYLQMNSLKPEDTAVYYCNRRDRGDSYRLDYWGQGTQVTVSS | high polyreactivity
31 | QVQLVESGGGLVQAGGSLRLSCAASGFIFGRNAMGWYRQAPGKERELVAAINWRGGSTYYADSVKGRCTISRDNAKNTVYLQMNSLKPEDTAVYYCAARGPYRYGYDYWGQGTQVTVSS | high polyreactivity
32 | QVQLVESGGGLVQAGGSLRLSCAASGFIFGRYAMGWYRQAPGKERELVAAISRGGGSTRYADSVKGRFTISRDNAKNTVYLQMKSLKPEDTAVYYCAAYRYWGRTSYSYDYWGQGTQVTVSS | high polyreactivity
33 | QVQLVESGGGLVQAGGSLRLSCAASGFIFGRYAMGWYRQAPGKERELVAAISSGDDTDYADSVKGRFTISRDNAKNTVYLQMNSLKPEDTAVSYCARSRFWSPVIYRRTIEFDSWGQGTQVTVSS | low polyreactivity
34 | QVQLVESGGGLVQAGGSLRLSCAASGFIFGRYAMGWYRQSPGKERELVAVISKRGDNTYYADSVKGRFTISRDNAKNTVYLQMNSLKPEDTAVYYCNVKRYGGRSDYWGQGTQVTVSS | high polyreactivity
35 | QVQLVESGGGLVQAGGSLRLSCAASGFIFGRYTMGWYRQAPGKERELVAAITYSGNTYYADSVKGRFTISRDKAKTTVYVQMNSLKPEDTALYYCNAYGANFRAFRNAYKYWGQGTQVTVSS | high polyreactivity
36 | QVQLVESGGGLVQAGGSLRLSCAASGFIFGSYALGWDRQAPGKEWELVAAINYDGGSTYYADSVKGRFTISRDHAKNTVYLQMNSLKPEDTAVYYCAADLYYTHMDYWGQGTQVTVSS | low polyreactivity
37 | QVQLVESGGGLVQAGGSLRLSCAASGFIFGSYAMGWYRQAPGKERELVAAISTGGGSTYYADSVKGRFTISRDNAKNTVYLQMNSLKPEDTAVYYCATDYRVTVWHPYQWYIYGYWGQGTQVTVSS | low polyreactivity
38 | QVQLVESGGGLVQAGGSLRLSCAASGFIFGSYTMGWYRQAPGKERELVAAISWSSGCSTYYADSVKGRFTISRDNAKNTVYLQMNSLKPEDTAVYYCAARHRGAGRNDFYYWGQGTQVTVSS | high polyreactivity
39 | QVQLVESGGGLVQAGGSLRLSCAASGFIFGTYAMGWYRQAPGNERELVAAISVGGGSTYYADSVKGRFTISRDNAKNTVYLQMNSLKPEDTAVYYCAAVQLYQKHQITYVAHEYWGQGTQVTVSS | low polyreactivity
40 | QVQLVESGGGLVQAGGSLRLSCAASGFIFGVNAMGWYRQAPGKEPELVAAINGGASTYYADSVKGRFTISRDNAKNTVYLQMNSLKPEDTAVYYCAAVFYDYRGRLYPNFGLYYYWGQGTQVTVSS | high polyreactivity
41 | QVQLVESGGGLVQAGGSLRLSCAASGFIFGVNAMVWYRQAPGKERELVAAITRNGGSTYYADSVKGRFTISRDNAKNTVYLQMKSLKPEDTAVYYCAKYVRRAPSTFDVDYWGQGTQVTVSS | high polyreactivity
42 | QVQLVESGGGLVQAGGSLRLSCAASGFIFGVYAMGWYRQAPGKERELVAAISRSGGSTYYADSVKGRFTISRDNAKNTVYLQMNSLKPEDTAVYYCATQVSWYGKGYYYWGQGTQVTVSS | high polyreactivity
43 | QVQLVESGGGLVQAGGSLRLSCAASGFIFGWNAMGWYREAPGKERELVAALTRTGSTYYADSVKGRFTISRDNAKNTVYLQMNSLKPEDTAVYYCAASYGSRSTRTEGYWGQGTQVTVSS | low polyreactivity
